Measurements reported in the supplement of paper PMC9170038.

Test system: MS2 coat protein
Assay: apparent KD of MS2 coat protein; designed switch direction (-1 OFF switch, 1 ON switch): -1; higher = weaker reporter binding
Outline: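 RNA switches sharing common flanks were transcribed by stalled E. coli RNA polymerase on Illumina chips. A doubling series of SNAP-549-labelled MS2 coat protein, from 0.7 or 1.5 nM to 3 µM, was applied in Tris-HCl pH 7.5 buffer with KCl, MgCl2, BSA, DTT, tRNA and Tween-20. Each step lasted 0.8–1.5 h at the bottom of the series and 10–20 min at the top. Normalised cluster fluorescence was curve-fitted, giving apparent KD as the per-design median over clusters.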

[1] = Eterna round: R95, input ligand: microRNA oligo, concentration not stated
[2] = input ligand: microRNA oligo, concentration not stated
[3] = Eterna round: R95, input ligand: FMN 200 uM
[4] = Eterna round: R95, input ligand: none

GGUGCGUAUGUGAGGAUAUGCUGGUCCUUGGAUCCGCAGAAGGCACAUGAGGAUCACCCAUGUGGUGUCGUACC [salish99_Bmod_Ex4_022] (puzzle: Brourd's mod of Exclusion 4)
apparent KD of MS2 coat protein [1]: 139 nM

GGUGCGUAUGUGAGGAUAUGCUGGUCCUUGGAUCUGCAGAAGGCACAUGAGGAUCACCCAUGUGGUGUCGUACC [salish99_Bmod_Ex4_024] (Eterna round: R96, puzzle: Brourd's mod of Exclusion 4)
apparent KD of MS2 coat protein (input ligand: FMN 200 uM): 105 nM | apparent KD of MS2 coat protein [2]: 411 nM | apparent KD of MS2 coat protein (input ligand: none): 506 nM

GGUGCGUAUGUGAGGAUAUGCUGGUCCUUGGAUCUGCAGAAGGCACAUGAGGAUCACCCAUGUGGUGUCGUACC [salish99_Bmod_Ex4_024] (puzzle: Brourd's mod of Exclusion 4)
apparent KD of MS2 coat protein [1]: 276 nM

GGUGCGUAUGUGAGGAUAUGCUGGUCCUUGGCUCGGCAGAAGGCACAUGAGGAUCACCCAUGUGGUGUCGUGCC [salish99_Bmod_ex4_056] (Eterna round: R96, puzzle: Brourd's mod of Exclusion 4)
apparent KD of MS2 coat protein (input ligand: FMN 200 uM): 46 nM | apparent KD of MS2 coat protein [2]: 14.9 nM | apparent KD of MS2 coat protein (input ligand: none): 19.8 nM

GGUGCGUAUGUGAGGAUAUGCUGGUCCUUGGCUCGGCAGAAGGCACAUGAGGAUCACCCAUGUGGUGUCGUGCC [salish99_Bmod_ex4_056] (puzzle: Brourd's mod of Exclusion 4)
apparent KD of MS2 coat protein [1]: 15.3 nM

GGUGCGUUUGUGAGGAUAUGCUGGUCCUUGGAUCAGCAGAAGGCACAUGAGGAUCACCCAUGUGGUGUCGUCCC [salish99_Bmod_Ex4_041] (puzzle: Brourd's mod of Exclusion 4)
apparent KD of MS2 coat protein [1]: 210 nM

GGUGCGUUUGUGAGGAUAUGCUGGUCCUUGGUUCCGCAGAAGGCACAUGAGGAUCACCCAUGUGGUGUCGUACC [salish99_Bmod_Ex4_044] (puzzle: Brourd's mod of Exclusion 4)
apparent KD of MS2 coat protein [1]: 148 nM

GGUGCGUUUGUGAGGAUAUGCUGGUCCUUGGUUCUGCAGAAGGCACAUGAGGAUCACCCAUGUGGUGUCGUACC [salish99_Bmod_Ex4_042] (puzzle: Brourd's mod of Exclusion 4)
apparent KD of MS2 coat protein [1]: 64.5 nM

GGUGGACAUGAGGAUCACCCAUGUGAGGAUAUCGGCCGGCUCGUGGUGGCUGGCUUCUCGAGAAGGCGCAUAGU [Exclusion 1 V75] (puzzle: Exclusion 1)
apparent KD of MS2 coat protein [1]: 50.6 nM

GGUGGACAUGAGGAUCACCCAUGUGAGGAUAUCGGCCGGUUCGCGGUGGCUGGCGUCUCGAGAAGGCACAUAGU [Exclusion 1 V72] (puzzle: Exclusion 1)
apparent KD of MS2 coat protein [1]: 86.4 nM

GGUGGACAUGAGGAUCACCCAUGUGAGGAUAUCGGCUGGCUAGCGGCGGACGGCUGCUCGAGAAGGCGCAUUGU [Exclusion 1 V84] (puzzle: Exclusion 1)
apparent KD of MS2 coat protein [1]: 61.1 nM

GGUGGACAUGAGGAUCACCCAUGUGAGGAUAUCGGCUGGCUAGCGGCGGAUGGCUUCUCGAGAAGGCGCAUUGU [Exclusion 1 V82] (puzzle: Exclusion 1)
apparent KD of MS2 coat protein [1]: 67.7 nM

GGUGGACAUGAGGAUCACCCAUGUGAGGAUAUCGGCUGUCUACUCGCUGACGGCUGCUCGAGAAGGCGCAUUGU [Exclusion 1 V89] (puzzle: Exclusion 1)
apparent KD of MS2 coat protein [1]: 38.6 nM

GGUGGCUGCGUGAGACAUGAGGAUCACCCAUGUUACCGAACAAAGGAUAUAGAAGCACACAGCUACUAGAAGGUUGAAAAGAAA [Requen] (Eterna round: R96, puzzle: Exclusion NG 3)
apparent KD of MS2 coat protein (input ligand: FMN 200 uM): 12.2 nM | apparent KD of MS2 coat protein [2]: 16.2 nM | apparent KD of MS2 coat protein (input ligand: none): 19.6 nM

GGUGGGCUAGGAUAUGCUUUGGGAAGGCAUUCCUUCGAUAAACUUGAGGAUCACCCAAGUAGAAGGAGCUUGCC [salish99_ex2_r4_021] (Eterna round: R97, puzzle: Exclusion 2)
apparent KD of MS2 coat protein (input ligand: FMN 200 uM): 21.3 nM | apparent KD of MS2 coat protein (input ligand: none): 13.6 nM

GGUGUACAUGAGGAUCACCCAUGUUAGGAUAUAUCCAAACGCCUAGAGGAGAGGCACGAUAGAAGGAACGUGUA [Eternabot (Original) Solution 33] (Eterna round: R97, puzzle: Exclusion 1)
apparent KD of MS2 coat protein (input ligand: FMN 200 uM): 37.2 nM | apparent KD of MS2 coat protein (input ligand: none): 41 nM

GGUGUGAGGCAGGAUAUGCAAUAAGUAAGUAAUGCAGAAGGGUCUACAUGAGGAUCACCCAUGUGUGCGGUAGA [Ex6 #2] (Eterna round: R97, puzzle: Exclusion 6)
apparent KD of MS2 coat protein (input ligand: FMN 200 uM): 202 nM | apparent KD of MS2 coat protein (input ligand: none): 109 nM

GGUGUGCCAGUCAGGAUAUGAUCCACGCCCGUAGGUCAGAAGGGACUUGAGGAUCACCCAAGUUGCAAGAAAGA [Gesoxedi] (Eterna round: R97, puzzle: Brourd's mod of Exclusion 4)
apparent KD of MS2 coat protein (input ligand: FMN 200 uM): 100 nM | apparent KD of MS2 coat protein (input ligand: none): 97.3 nM

GGUUAGACGGUAGGAUAUCCAUAUCGAGUGACCCUUUCAUAACAUGAGGAUCACCCAUGUCGGUGGGAGAAGGGCCGUACGGCG [salish99_ExNG02_R04_009] (Eterna round: R96, puzzle: Exclusion NG 2)
apparent KD of MS2 coat protein (input ligand: FMN 200 uM): 50.9 nM | apparent KD of MS2 coat protein [2]: 33.5 nM | apparent KD of MS2 coat protein (input ligand: none): 42.2 nM

GGUUAUUGCAAGGAUAUGCUUUUUUUUGAUAUUGCAGAAGGUGCAACAUGAGGAUCACCCAUGUUGGAUGGGUU [JR_E6_Sub019] (puzzle: Exclusion 6)
apparent KD of MS2 coat protein [1]: 94.1 nM

GGUUCCUGAGGAUAUACAUGAGGAUCACCCAUGUCUAUAUCAGCAGACGAUGACACAAGUAGAAGGUAGAGGGC [Eternabot (L2) Solution 48] (Eterna round: R97, puzzle: Exclusion 3)
apparent KD of MS2 coat protein (input ligand: FMN 200 uM): 15 nM | apparent KD of MS2 coat protein (input ligand: none): 10.4 nM

GGUUGACAUGAGGAUCACCCAUGUGAGGAUAUGCGAGAGAAAAAAGUGAGGAAGAAUUGCAGAAGGCGCUGUCG [salish99-ex1_r3_015] (puzzle: Exclusion 1)
apparent KD of MS2 coat protein [3]: 69.3 nM | apparent KD of MS2 coat protein [1]: 37.1 nM | apparent KD of MS2 coat protein [4]: 76.9 nM

GGUUGACAUGAGGAUCACCCAUGUGAGGAUAUGCGAGAGAAAAAAGUGAGGAAGUUUUGCAGAAGGCGCUGUCG [salish99-ex1_r3_007] (puzzle: Exclusion 1)
apparent KD of MS2 coat protein [3]: 43.5 nM | apparent KD of MS2 coat protein [1]: 87.5 nM | apparent KD of MS2 coat protein [4]: 56 nM

GGUUGGCGAGGAUAUACAUGAGGAUCACCCAUGUGACAGAAAAAAGUGAGGAAGAAAAGUAGAAGGCGCUGACG [salish99_ex3_r3_019] (puzzle: Exclusion 3)
apparent KD of MS2 coat protein [3]: 587 nM | apparent KD of MS2 coat protein [1]: 44.9 nM | apparent KD of MS2 coat protein [4]: 37.1 nM

GGUUGGCGAGGAUAUACAUGAGGAUCACCCAUGUGAGACAAAAAAGUGAGGAAGAAAAGUAGAAGGCGCUGACG [salish99_ex3_r3_021] (puzzle: Exclusion 3)
apparent KD of MS2 coat protein [3]: 362 nM | apparent KD of MS2 coat protein [1]: 54.1 nM | apparent KD of MS2 coat protein [4]: 64.1 nM

GGUUGGCGAGGAUAUACAUGAGGAUCACCCAUGUGAGAGAAAAAAGCGAGGAAGAAAAGUAGAAGGCGCUGACG [salish99_ex3_r3_027] (puzzle: Exclusion 3)
apparent KD of MS2 coat protein [3]: 137 nM | apparent KD of MS2 coat protein [1]: 43 nM | apparent KD of MS2 coat protein [4]: 56 nM

GGUUGGCGAGGAUAUACAUGAGGAUCACCCAUGUGAGAGAAAAAAGUGAGGAACAAAAGUAGAAGGCGCUGACG [salish99_ex3_r3_033] (puzzle: Exclusion 3)
apparent KD of MS2 coat protein [3]: 184 nM | apparent KD of MS2 coat protein [1]: 48.5 nM | apparent KD of MS2 coat protein [4]: 58.2 nM

GGUUGGCGAGGAUAUACAUGAGGAUCACCCAUGUGAGAGAAAAAAGUGAGGAAGAAAAGUAGAAGGCGCUGACG [salish99-ex3-14] (Eterna round: R96, puzzle: Exclusion 3)
apparent KD of MS2 coat protein (input ligand: FMN 200 uM): 354 nM | apparent KD of MS2 coat protein [2]: 105 nM | apparent KD of MS2 coat protein (input ligand: none): 84 nM

GGUUGGCGAGGAUAUACAUGAGGAUCACCCAUGUGAGAGAAAAAAGUGAGGAAGAAAAGUAGAAGGCGCUGACG [salish99-ex3-champ] (puzzle: Exclusion 3)
apparent KD of MS2 coat protein [3]: 412 nM | apparent KD of MS2 coat protein [1]: 49.3 nM | apparent KD of MS2 coat protein [4]: 44.5 nM

GGUUGGCGAGGAUAUACAUGAGGAUCACCCAUGUGAGAGAAAAAAGUGAGGAAGAAAAGUAGAAGGCGCUGACU [salish99_ex3_r3_047] (puzzle: Exclusion 3)
apparent KD of MS2 coat protein [3]: 221 nM | apparent KD of MS2 coat protein [1]: 53.2 nM | apparent KD of MS2 coat protein [4]: 50.1 nM

GGUUGGCGAGGAUAUACAUGAGGAUCACCCAUGUGAGAGAAAAGAGUGAGAACGAAAAGUAGAAGGCGCUGACG [salish99_ex3_r3_059] (puzzle: Exclusion 3)
apparent KD of MS2 coat protein [3]: 60 nM | apparent KD of MS2 coat protein [1]: 112 nM | apparent KD of MS2 coat protein [4]: 207 nM

GGUUGGCGAGGAUAUACAUGAGGAUCACCCAUGUGAGAGAAAAGAGUGAGGAAGAAAAGUAGAAGGCGCUGACG [salish99_ex3_r3_006] (puzzle: Exclusion 3)
apparent KD of MS2 coat protein [3]: 55.9 nM | apparent KD of MS2 coat protein [1]: 69.8 nM | apparent KD of MS2 coat protein [4]: 76.1 nM

GGUUGGCGAGGAUAUACAUGAGGAUCACCCAUGUGAGAGAUACUAGUGAGGUCGAUUGGUAGAAGGCGCUGACA [Mat - Exclusion 3 - Mod of JL D78] (puzzle: Exclusion 3)
apparent KD of MS2 coat protein [1]: 114 nM

GGUUGGCGAGGAUAUACAUGAGGAUCACCCAUGUGAGAGGAAAAAGUGAGAACGAAAAGUAGAAGGCGCUGACG [salish99_ex3_r3_062] (puzzle: Exclusion 3)
apparent KD of MS2 coat protein [3]: 119 nM | apparent KD of MS2 coat protein [1]: 78.9 nM | apparent KD of MS2 coat protein [4]: 225 nM

GGUUGGCGAGGAUAUACAUGAGGAUCACCCAUGUGAGUGAAAAAAGUGAGGAAGAAAAGUAGAAGGCGCUGACG [salish99_ex3_r3_008] (puzzle: Exclusion 3)
apparent KD of MS2 coat protein [3]: 288 nM | apparent KD of MS2 coat protein [1]: 254 nM | apparent KD of MS2 coat protein [4]: 196 nM

GGUUUGUAAGGAUAUCCGAGAGGUAGGUGAGGGUUAGGGAAGGAGAAGGUACAUGAGGAUCACCCAUGUAAGGG [AK-MS2ROC-r4-exclusion4-10] (Eterna round: R97, puzzle: Exclusion 4)
apparent KD of MS2 coat protein (input ligand: FMN 200 uM): 127 nM | apparent KD of MS2 coat protein (input ligand: none): 102 nM
